Data taken from patent publication US20190083619A1, “METHODS AND COMPOSITIONS FOR REMOVING, REDUCING, DISPERSING, DISRUPTING OR ERADICATING BIOFILMS AND DETERMINING THE NUMBER OF BACTERIAL POPULATION IN BIOFILM OR A CULTURE CONTAINING BACTERIAL AGGREGATE” (INSTITUTE OF MICROBIOLOGY, CHINESE ACADEMY OF SCIENCES, priority 2017, published 2019).

Tests used:
ΔpaaP strain = test: MIC by E test strips; format: cell-based, P. aeruginosa; conditions: E test strip, 37° C. overnight; FIG. 9A
Protocol: The MIC (minimum inhibition concentration) of ΔpaaP strain to tobramycin and ciprofloxacin, two antibiotics commonly used to treat P. aeruginosa infections, was tested by E test strips. Overnight culture was diluted to OD600˜0.1, and spread on the plate. The E test strip was put onto the plate, cultivated at 37° C. overnight, and the minimum inhibition concentration was recorded according to the E test strip.

Psl production in PAO1 = test: Psl production by anti-Psl immunodot blotting; format: cell-based, P. aeruginosa; conditions: 5 μM C12-HSL added to culture medium; FIG. 3D
Protocol: To examine Psl production, exopolysaccharide Psl extracts were collected from overnight cultures equivalent to approximately 10 OD600 and examined by immunodot blotting using an anti-Psi antibody. For the effect of C12-HSL on Psl production, 5 μM C12-HSL was added to the medium after inoculation. The software Image Lab™ was used to quantify the immunodot blotting data.
LasI directs the synthesis of the QS signal molecular, N-(3-oxododecanoyl)-L-homoserine lactone (C12-HSL). Thus, whether C12-HSL supplement could affect Psl production in PAO1 was examined. […] C12-HSL is usually associated with the transcriptional regulator LasR to active their target genes.

[1] = test system: psl transcription in PAO1; test: psl transcription detected by psl::gfp reporter plasmid; format: cell-based, P. aeruginosa; conditions: 5 μM C12-HSL added to PAO1 culture; FIG. 3E
MJK8 = test: Dispersal of bacterial aggregates in liquid culture, OD600 read; format: cell-based, P. aeruginosa; conditions: 100 nM PslG, Jensen's or LBNS medium, 3 h and 6 h; FIG. 13A, 13B
Protocol: (§1) PAO1-derived rugose small colony variant (RSCV) strain MJK8 was grown in LBNS at 37° C. 200 rpm overnight. This overnight culture was washed and then inoculated into Jensen's medium or in LBNS medium at 1:50 with or without 100 nM of PslG. Bacterial growth was determined by taking OD600 read at 3 h and 6 h post inoculation. P. stutzeri strain A1501 was firstly grown in LD medium at 30° C. 200 rpm overnight. The overnight culture was washed and inoculated into KLG^+ medium at 1:50 with or without 100 nM of PslG. OD600 was taken at 3 h, 6 h and 30 h post inoculation to monitor the bacterial growth. FIGS. 13A-13C show the comparison of OD600 read with or without PslG treatment of: MJK8 growth in chemically defined Jensen's medium (FIG. 13A); MJK8 growth in LBNS rich medium (FIG. 13B); A1501 growth in KLG^+ medium (FIG. 13C).

PAO1 biofilms = test: Dispersal of air-liquid interface biofilms and live cell counting by CFU; format: cell-based, P. aeruginosa; conditions: 50 nM PslG, 30° C., 1 h, versus tissue homogenate and control; FIG. 14
Protocol: The PAO1 strain was inoculated on LBNS solid medium plates and overnight incubated at 37° C. Then monoclones of the PAO1, collected from the LBNS solid medium plates, were inoculated in LBNS liquid medium and incubated at 37° C. overnight with shaking at 200 rpm. The culture was washed with PBS for once. Then the culture was inoculated in Jensen's liquid medium at 1:100 (V:V), and incubated at 30° C. in a 24-pore plate. Biofilms were formed at the air-liquid interface. The liquid under the biofilms was removed by a pipettor. The biofilms were washed with PBS for twice so as to remove free bacterial cells that are not embedded in the biofilms. The biofilms were added in PBS for subsequent treatment. For a tissue homogenate treatment group, a sterile glass homogenizer (1 mL) was used to homogenize the biofilms for three times. For PslG treatment group, PslG was added to the biofilms, and the final concentration of PslG is 50 nM. The biofilms were incubated at 30° C. for 1 h. For a control group, no treatment was performed on the biofilms at this stage. Afterwards, the biofilm samples from the tissue homogenate treatment group, the PslG treatment group, and the control group were homogenized using a pipette and then votexed. The biofilm samples were diluted in PBS at 1:10. […] The numbers of live cells in the biofilm samples was determined based on the CFUs.

A1501 = test: Dispersal of bacterial aggregates in liquid culture, OD600 read; format: cell-based, P. stutzeri; conditions: 100 nM PslG, KLG+ medium, 3 h, 6 h, 30 h; FIG. 13C
Protocol: as §1

[2] = In vitro treatment of Psl extract, elution profile on Sephadex G-50 column; format: biochemical, P. aeruginosa; conditions: exogenous-supplied PslG in vitro; FIG. 8B
Protocol: The Psl extract from biofilm was prepared, fractionated on a Sephadex G-50 column, and irrigated with water at 0.67 ml/min. The total carbohydrate in each fraction (5 ml) was assayed colorimetrically for aldose. Briefly, 200 μl of each fraction was mixed with 100 μl 5% phenol and 500 μl concentrated sulfuric acid, reacted at room temperature for 30 minutes, and measured (OD492).
To confirm, the Psl extracted from PAO1 biofilms was treated with exogenous-supplied PslG in vitro.

[3] = target: T1, (2S,3R)-3-Amino-2-hydroxy-5-methylhexanoyl-Val-Val-Asp (Amastatin)
T1 chain: VVD

Molecule: O=C(O)c1cn(C2CC2)c2cc(N3CCNCC3)c(F)cc2c1=O [ciprofloxacin]
- MIC of ΔpaaP, fold lower than PAO1 (ΔpaaP strain): 8 fold

Molecule: CCCCCCCCCC(=O)CC(=O)N[C@H]1CCOC1=O [C12-HSL, N-(3-oxododecanoyl)-L-homoserine lactone]
- effect on Psl production (Psl production in PAO1): did increase Psl production in PAO1
- effect on psl transcription [1]: psl transcription was enhanced

B1: PslG: glycosyl hydrolase of P. aeruginosa that degrades the Psl exopolysaccharide matrix; amino acid sequence SEQ ID NO: 6 (protein)
chain: EIQVLKAPRAVVWKDFLGVNAQFLWFSPERYNKQIDRLQDLGLEWVRLDLHWDRLETAEDQYQLASLDQLVKDLEARQLKSVFYLVGSARFITTAPFYSPFQDQYPPRDPEVFARRMAMLSQRYPSVAAWQVWNEPNLIGFWRPKADPEGYAKLLQASTIALRMVDPEKPVVSAGMAFFSEMPDGRTMFDALGHLGVESLGTIATYHPYTQLPEGNYPWNLDFVSHANQINRALRNAGVPAIWSTEWGWSAYKGPKELQDIIGVEGQADYVLRRLALMSALDYDRIFLFTLSDLDQRASVRDRDYGLLDLDANPKPVYLALQRFLKVTGPKLRPADPPVTEDLPDGSFSIGWTREDGRNVWLFWSARGGNVRLPKLKEATLHDPLSGKVTPLSGSDGLEVPVKSSLQMLVWE
- dispersal of flocs in liquid culture (MJK8): can disperse the flocs of MJK8 and A1501 in liquid culture
- number of detected CFUs for treated biofilms (PAO1 biofilms): significantly greater than the number of detected CFUs for the biofilms treated by tissue homogenate, and the biofilms in the control group
- dispersal of flocs in liquid culture (A1501): can disperse the flocs of MJK8 and A1501 in liquid culture
- elution profile of PslG-degraded Psl [2]: showed a very similar profile as Psl extracted from the ΔpaaP biofilm

B2: P. aeruginosa aminopeptidase (PaAP) (protein)
chain: APSEAQQFTEFWTPGKPNPSICKSPLLVSTPLGLPRCLQASNVVKRLQKLEDIASLNDGNRAAATPGYQASVDYVKQTLQKAGYKVSVQPFPFTAYYPKGPGSLSATVPQPVTYEWEKDFTYLSQTEAGDVTAKVVPVDLSLGAGNTSTSGCEAEDFANFPAGSIALIQRGTCNFEQKAENAAAAGAAGVIIFNQGNTDDRKGLENVTVGESYEGGIPVIFATYDNGVAWSQTPDLQLHLVVDVVRKKTETYNVVAETRRGNPNNVVMVGAHLDSVFEGPGINDNGSGSAAQLEMAVLLAKALPVNKVRFAWWGAEEAGLVGSTHYVQNLAPEEKKKIKAYLNFDMIGSPNFGNFIYDGDGSDFGLQGPPGSAAIERLFEAYFRLRGQQSEGTEIDFRSDYAEFFNSGIAFGGLFTGAEGLKTEEQAQKYGGTAGKAYDECYHSKCDGIANINQDALEIHSDAMAFVTSWLSLSTKVVDDEIAAAGQKAQSRSLQMQKSASQIERWGHDFIK
- PaAP catalytic activity (hydrolysis of Leu-p-nitroanilide, 7 nM PaAP with 10, 20, 30 µM Amastatin or without) [3]: the Amastatin may inhibit the enzyme activity of PaAP at micromolar concentrations, and the inhibition effect may increase with higher concentration of Amastatin
